Assay results taken from patent publication US20060019241A1, “Na+ and CI-coupled transport system for endogenous opioid peptides” (priority 2004, published 2006).
Entries after “also recorded” stand apart in the source; their conditions may differ. Ends that are not written are not given here.

B1: tyrosine melanocyte-stimulating hormone inhibitory factor 1 (Tyr-MIF-1; Tyr-Pro-Leu-Gly-NH2) (peptide)
peptide: YPLG-NH2
B2: Dynorphin B (1-9) (Tyr-Gly-Gly-Phe-Leu-Arg-Arg-Gln-Phe) (peptide)
peptide: YGGFLRRQF

Tests used:
[1] = biological target: Na+- and Cl--coupled transport system for endogenous opioid peptides (human cell lines ARPE-19, Tat-ARPE-19 and SK-N-SH) (human); assay: cell-based or functional assay
[2] = system: deltorphin II transport system in Tat-ARPE-19 cells; assay: Inhibition of [^3H]deltorphin II uptake in Tat-ARPE-19 cells; assay type: cell-based, human; conditions: [^3H]deltorphin II 50 nM; for competition with deltorphin for the uptake process (in words): Tat-ARPE-19 / RPE cells, compound 1 mM; for [^3H] Deltorphin II uptake / [^3H] Deltorphin II uptake (%) of control: Tat-ARPE-19 cells, 30 minutes, NaCl, inhibitor 1 mM; for [^3H] Deltorphin II uptake (%) of control: control = 100
Description: Stable transfection of ARPE-19 cells with pcDNA-Tat cDNA. The pGEM2-Tat cDNA construct contained as the insert a 295 basepair (bp) fragment encoding the first exon of HIV-1 Tat gene joined to a 145 bp pET3A transcription terminator. The entire insert (440 bp) was removed from the construct by digestion with PstI and EcoRI and ligated into the multiple cloning region of pcDNA3.1 (−) vector at PstI/EcoRI site so that the insert is downstream of the cytomegalovirus (CMV) promoter. The resultant construct was sequenced to confirm the orientation of the insert. This construct was electroporated into ARPE-19 cells and the stably transfected cell clones were isolated in the presence of Geneticin (G418). To serve as a control, empty pcDNA3.1 vector was electroporated into ARPE-19 cells in an identical manner and the clones harboring the vector were selected by G418 resistance.
Uptake measurements in control ARPE-19 cells and Tat-ARPE-19 cells. Control ARPE-19 cells and Tat-ARPE-19 cells were maintained in 75-cm^2 culture flasks in Dulbecco's modified Eagle's medium/F12 medium (1:1, volume/volume (v/v)) in the presence of fetal bovine serum (10%) and G418 (100 μg/ml). For uptake measurements, cells were released by trypsin treatment and seeded in 24-well culture plates at an initial density of 0.1×10^6 cells/well. The culture medium was replaced with fresh medium on the second day following the initial seeding and uptake measurements were made on the third day. […] After incubation at 37° C. for a desired time, uptake was terminated by the removal of the medium and washing of the cells with ice-cold uptake buffer. The cells were then dissolved in 1% SDS in 0.2 M NaOH and used for measurement of radioactivity. The uptake buffer in most experiments was 25 mM Hepes/Tris (pH 7.5), containing 140 mM NaCl, 5.4 mM KCl, 1.8 mM CaCl2, 0.8 mM MgSO4 and 5 mM glucose.
When the influence of Na^+ on the uptake process was investigated, the concentration of NaCl in the uptake buffer was adjusted, as desired, by isoosmotically replacing NaCl with N-methyl-D-glucamine chloride. To assess the influence of Cl^− on the uptake process, the composition of the uptake medium was modified by replacing KCl and CaCl2 with equimolar concentrations of potassium gluconate and calcium gluconate and the concentration of NaCl was adjusted, as desired, by iso-osmotically replacing NaCl with sodium gluconate. Saturation kinetics were analysed by fitting the data to the Michaelis-Menten equation. The Michaelis-Menten constant, Kt, was calculated by non-linear regression analysis and then confirmed by linear regression. Na^+- and Cl^−-activation kinetics were analyzed by fitting the data to the Hill equation and the Hill coefficients for Na^+ and Cl^− (h; the number of Na^+ and Cl^− ions involved in the activation process) and the K0.5 values (the concentration of Na^+ and Cl^−-needed for half-maximal activation) were determined from the analysis. Again, these constants were first calculated by non-linear regression methods and subsequently confirmed by linear regression methods. Experiments were repeated three times in duplicate and the results are given as means±S.E.M.
Substrate specificity of the deltorphin transport system. […] These peptides consisted of 4-13 amino acids.
Relative affinities of endogenous opioid peptides for the transport system.

Molecule | IC50 for inhibition of [3H]deltorphin II uptake in Tat-ARPE-19 cells [1] | [3H]deltorphin II (50 nM) uptake in Tat-ARPE-19 cells, 30 min, NaCl, inhibitor 1 mM (pmol/mg protein/30 min) [1] | [3H]deltorphin II uptake (%) in Tat-ARPE-19 cells, inhibitor 1 mM [1] | competition with deltorphin for the uptake process (in words) [2] | [^3H] Deltorphin II uptake [2] | [^3H] Deltorphin II uptake (%) of control [2] | also measured
Met-enkephalinamide (Tyr-Gly-Gly-Phe-Met-NH2) (peptide) | 13 mM | 0.69 | 9 % of control |  |  |  | 
Met-enkephalin (Tyr-Gly-Gly-Phe-Met) (peptide) | 33.2 mM | 0.5 | 6 % of control |  |  |  | [3H]deltorphin II (50 nM) uptake in control ARPE-19 cells, 30 min, NaCl, opioid peptide 1 mM (pmol/mg protein/30 min) [1]: 0.06; [3H]deltorphin II uptake (%) in control ARPE-19 cells, opioid peptide 1 mM [1]: 5 % of control; affinity from concentration-dependent inhibition of [3H]deltorphin II (25 nM) uptake in SK-N-SH cells [1]: 10.7 µM
Tyr-Pro (peptide) |  | 5.72 | 74 % of control |  |  |  | 
[des-Tyr1]Met-enkephalin (Gly-Gly-Phe-Met) (peptide) | 31.9 mM | 0.74 | 10 % of control |  |  |  | 
Gly-Gly-Gly (peptide) |  | 9.68 | 125 % of control |  |  |  | 
Tyr-Pro-Leu-Gly-NH2 (YPLG-NH2) [Tyr-MIF-1] |  |  |  | no or little inhibition; also recorded: not recognized | 9.20 ± 0.15 pmol/mg protein/30 min | 119% | 
NCCC(=O)N[C@@H](Cc1cnc[nH]1)C(=O)O [Carnosine, β-Ala-His] |  |  |  | did not compete | 6.21 ± 0.08 pmol/mg protein/30 min | 80% | 
Tyr-Pro |  |  |  | did not compete | 5.72 ± 0.09 pmol/mg protein/30 min | 74% | 
Tyr-Gly-Gly-Phe (YGGF; printed: Tyr-Gly-Gly-Phe) [β-Lipotropin] |  |  |  | no or little inhibition | 6.26 ± 0.31 pmol/mg protein/30 min | 81% | 
NCC(=O)O [Glycine] |  |  |  | did not compete | 7.23 ± 0.14 pmol/mg protein/30 min | 93% | 
[Arg6, Phe7]Met-enkephalin (Tyr-Gly-Gly-Phe-Met-Arg-Phe) (peptide) | 9.1 mM | 0.11 | 1 % of control |  |  |  | [3H]deltorphin II (50 nM) uptake in control ARPE-19 cells, 30 min, NaCl, opioid peptide 1 mM (pmol/mg protein/30 min) [1]: 0.05; [3H]deltorphin II uptake (%) in control ARPE-19 cells, opioid peptide 1 mM [1]: 4 % of control
O=C(O)[C@@H]1CCCN1 [L-Proline] |  |  |  | did not compete | 7.31 ± 0.20 pmol/mg protein/30 min | 94% | 
[Arg6, Gly7, Leu8]Met-enkephalin (Tyr-Gly-Gly-Phe-Met-Arg-Gly-Leu) (peptide) | 2.5 mM | 0.09 | 1 % of control |  |  |  | [3H]deltorphin II (50 nM) uptake in control ARPE-19 cells, 30 min, NaCl, opioid peptide 1 mM (pmol/mg protein/30 min) [1]: 0.04; [3H]deltorphin II uptake (%) in control ARPE-19 cells, opioid peptide 1 mM [1]: 4 % of control
Leu-enkephalin (Tyr-Gly-Gly-Phe-Leu) (peptide) | 9.5 mM | 0.15 | 2 % of control |  |  |  | affinity from concentration-dependent inhibition of [3H]deltorphin II (25 nM) uptake in SK-N-SH cells [1]: 7.8 µM
Carnosine (β-Ala-His) (peptide) |  | 6.21 | 80 % of control |  |  |  | 
Dynorphin A (1-7) (Tyr-Gly-Gly-Phe-Leu-Arg-Arg) (peptide) | 7.3 mM | 0.1 | 1 % of control |  |  |  | [3H]deltorphin II (50 nM) uptake in control ARPE-19 cells, 30 min, NaCl, opioid peptide 1 mM (pmol/mg protein/30 min) [1]: 0.05; [3H]deltorphin II uptake (%) in control ARPE-19 cells, opioid peptide 1 mM [1]: 5 % of control; affinity from concentration-dependent inhibition of [3H]deltorphin II (25 nM) uptake in SK-N-SH cells [1]: 4.6 µM
α-Neo-endorphin (1-6) (Tyr-Gly-Gly-Phe-Met-Lys) (peptide) |  | 0.19 | 3 % of control |  |  |  | 
YPFPGPI [β-Casomorphin] |  |  |  |  | 2.03 ± 0.05 pmol/mg protein/30 min | 26% | 
N[C@@H](Cc1ccc(O)cc1)C(=O)O [L-Tyrosine] |  |  |  | did not compete | 7.52 ± 0.15 pmol/mg protein/30 min | 97% | 
Dynorphin A (1-6) (Tyr-Gly-Gly-Phe-Leu-Arg) (peptide) | 4.2 mM | 0.12 | 2 % of control |  |  |  | [3H]deltorphin II (50 nM) uptake in control ARPE-19 cells, 30 min, NaCl, opioid peptide 1 mM (pmol/mg protein/30 min) [1]: 0.06; [3H]deltorphin II uptake (%) in control ARPE-19 cells, opioid peptide 1 mM [1]: 5 % of control; affinity from concentration-dependent inhibition of [3H]deltorphin II (25 nM) uptake in SK-N-SH cells [1]: 3.5 µM
Gly-Gly-Phe-Met [[des-Tyr^1] Met-enkephalin] |  |  |  | marked inhibition | 0.74 ± 0.03 pmol/mg protein/30 min | 10% | 
β-Casomorphin (Tyr-Pro-Phe-Pro-Gly-Pro-Ile) (peptide) |  | 2.03 | 26 % of control |  |  |  | 
Gly-Gly-Ile (peptide) |  |  |  |  |  |  | stimulation of deltorphin II uptake in SK-N-SH cells [1]: 6 to 8 fold
β-Lipotropin (Tyr-Gly-Gly-Phe) (peptide) |  | 6.26 | 81 % of control |  |  |  | 
B1 |  | 9.2 | 119 % of control |  |  |  | 
B2 | 3.1 mM | 0.08 | 1 % of control |  |  |  | [3H]deltorphin II (50 nM) uptake in control ARPE-19 cells, 30 min, NaCl, opioid peptide 1 mM (pmol/mg protein/30 min) [1]: 0.06; [3H]deltorphin II uptake (%) in control ARPE-19 cells, opioid peptide 1 mM [1]: 5 % of control
